The values below come from PMC5658516 (Cell Chemical Biology, 2017).

The experiment deals with T1, His10-Ub-Ub WT (UniProt P0CG48 1-76; P0CG48 1-76).
T1 construct: ubiquitin, distal moiety; ubiquitin, proximal moiety; two ubiquitins head to tail on one chain; also called linear diUb; M1-linked diUb; source: E. coli BL21-CodonPlus (DE3)-RIPL, purified (HisTrap, desalting); not shown: His10, N-terminal, kept
Briefly: pull-down; 20 μg OTULINcat-ST with equimolar His10-diUb in PBS, 0.1% BSA, 5% glycerol, 0.1% Triton-X, 2 h 4 °C; OTULINcat-ST held on Strep-Tactin Sepharose, eight washes with 0.5% Triton-X; western blot. As to conditions: both partners purified.

B1: OTULINcat-Strep-tag II C129A (domain or fragment, UniProt Q96BN8 80-352, looked up)
chain: LSVAPEMDIMDYCKKEWRGNTQKATCMKMGYEEVSQKFTSIRRVRGDNYAALRATLFQAMSQAVGLPPWLQDPELMLLPEKLISKYNWIKQWKLGLKFDGKNEDLVDKIKESLTLLRKKWAGLAEMRTAEARQIACDELFTNEAEEYSLYEAVKFLMLNRAIELYNDKEKGKEVPFFSVLLFARDTSNDPGQLLRNHLNQVGHTGGLEQVEMFLLAYAVRHTIQVYRLSKYNTEEFITVYPTDPPKDWPVVTLIAEDDRHYNIPVRVCEETSL
notes: also called OTULINcat C129A; OTULIN C129A; source: E. coli BL21-CodonPlus (DE3)-RIPL, purified (StrepTrap, desalting); not shown: Strep-tag II, C-terminal, kept
On to B1, for which the binding result is reported as “binds”.
